In patent US20240425606A1, “ANTI-IL-11RA ANTIBODIES” (Lassen Therapeutics 1, Inc., priority 2021, published 2024):
Entries after “also recorded” stand apart in the source; their conditions may differ.

T1: hIL-11Rα (Homo sapiens, UniProt Q14626)
T1 sequence (Q14626 23-422): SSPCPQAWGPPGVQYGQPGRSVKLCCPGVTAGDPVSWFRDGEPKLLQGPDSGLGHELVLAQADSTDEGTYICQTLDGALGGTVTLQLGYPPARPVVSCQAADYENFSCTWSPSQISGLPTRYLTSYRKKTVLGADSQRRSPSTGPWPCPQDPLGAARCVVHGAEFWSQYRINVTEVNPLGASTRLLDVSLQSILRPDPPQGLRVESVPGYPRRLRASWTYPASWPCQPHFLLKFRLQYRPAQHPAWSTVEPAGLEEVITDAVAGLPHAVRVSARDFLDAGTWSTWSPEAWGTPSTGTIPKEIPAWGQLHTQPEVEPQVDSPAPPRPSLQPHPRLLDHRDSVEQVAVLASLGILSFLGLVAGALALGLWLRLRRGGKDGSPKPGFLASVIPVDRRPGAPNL

T2: hIL-1 IR (Homo sapiens, UniProt Q14626)
T2 sequence (Q14626 23-422): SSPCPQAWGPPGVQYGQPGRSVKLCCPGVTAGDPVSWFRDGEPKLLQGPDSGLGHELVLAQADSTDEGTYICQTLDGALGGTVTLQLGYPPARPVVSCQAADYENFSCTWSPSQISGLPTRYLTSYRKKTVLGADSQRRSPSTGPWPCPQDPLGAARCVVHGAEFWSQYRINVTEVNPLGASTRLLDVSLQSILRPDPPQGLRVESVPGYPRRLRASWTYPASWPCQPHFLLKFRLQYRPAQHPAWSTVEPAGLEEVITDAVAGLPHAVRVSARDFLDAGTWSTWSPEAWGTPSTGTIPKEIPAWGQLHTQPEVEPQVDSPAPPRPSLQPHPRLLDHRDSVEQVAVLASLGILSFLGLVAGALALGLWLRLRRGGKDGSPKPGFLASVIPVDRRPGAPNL


Tests used:
hIL-11Rα = target: T1, hIL-11Rα; experiment: Kinetic binding analysis by biolayer interferometry (protein G biosensors, Octet RED96e)
Experimental: Association was carried out in the presence of a 2-fold dilution series of hIL-11Rα and was allowed to proceed for 120 seconds; dissociation was measured for 300 to 1200 seconds.

[1] = test system: IL-11 signaling in STAT3 Reporter (Luciferase)—HEK293 cell line; experiment: Cell-based STAT3 reporter (luciferase) assay for inhibiting IL-11 signaling; parameters: species or system human; conditions: compared with TS7 and 8E2
Experimental: Further testing of the lead mAbs was carried out using a cell-based reporter assay. IL-11 is reported to signal through the STAT3 and ERK pathways. Therefore, a STAT3 reporter cell line in which firefly luciferase gene expression is driven by STAT3 response elements located upstream of a minimal TATA promoter was selected to analyze mAb functional activity. In these cells, IL-11 can activate the endogenous STAT3 allowing it to bind to the STAT3 response elements, inducing transcription of the luciferase reporter gene and resulting in readily detectable luciferase expression. Antibodies to IL-11R which block IL-11 signaling should inhibit expression of IL-11 driven luciferase in these cells.
The STAT3 Reporter (Luciferase)—HEK293 cell line (BPS Bioscience, catalog #79800-P) was grown, passaged, and assayed as per manufacturer's protocols. Cells were added at 25,000 cells per well in a 96-well microtiter dish and incubated at 37° C. for 30-45 min. in 5% CO2 humidified air. Anti-IL-11R mAbs were added as a 3-fold dilution series in duplicate columns or rows, and plates were returned to the incubator for an additional 1 h at 37° C. after which 40 ng/mL IL-11 was added to each well to initiate the signal transduction cascade and luciferase production. Plates were incubated for 18-24 hours at 37° C. and luciferase was detected using a One-Step Luciferase Assay System (BPS Bioscience, cat. no. 60690-1) as per manufacturer's instructions.

hIL-1 IR [2] = target: T2, hIL-1 IR; experiment: Alternate biolayer interferometry assay (AHC biosensors) ranking mAbs 16-32 against mAb5; assay type: binding; conditions: for ka: association 120 s; for kd: dissociation 1200 s; for qualitative assessment: compared to mAb5
Excerpt: A further series of antibodies were designed in which the residue at Kabat position 31 of the heavy chain was varied (mAbs 16-32). In this case an alternate biolayer interferometry assay was used to initially rank the antibodies compared to mAb5, the closest relative in sequence to mAbs 16-32. MAbs were loaded onto anti-human constant domain (AHC) biosensors (FortdBio) in 10× kinetics buffer consisting of PBS, 0.1% BSA, 0.02% Tween 20 for 120 s to achieve a spectral shift value of 0.8 to 1.2 nm. Association was carried out in the presence of 2-fold dilution series of hIL-1 IR and was allowed to proceed for 120 s. Dilution series started 10 nM. The dissociation in 10× kinetics buffer for 1200 s. Binding kinetic measurements were taken on an Octet RED96e instrument.

[3] = test system: type VI collagen formation (PRO-C6) in fibrotic human PCLS; experiment: Fibrotic human precision-cut lung slice (PCLS) model, PRO-C6 biomarker of ECM remodeling; assay type: cell-based; conditions: 48 hours
Experimental: Studies were performed to evaluate the effect of the mAb5 antibody on biomarkers reflecting ECM remodeling in a fibrotic human precision-cut lung slice (PCLS) model. The anti-fibrotic effect was investigated at three different concentrations in human ex vivo lung tissue slices prepared from pulmonary fibrosis patients.
Tissue slices were prepared from the subpleural and central region of the fibrotic lung from two human end-stage donors with pulmonary fibrosis (IPF and secondary fibrosis) (see, for example, Hess et al., Toxicol In Vitro. 32:347-61, 2016). For both donors, lung tissue samples from two different regional areas (subpleural and central) were used to generate tissue cores used for PCLS. Adjacent cores were used to achieve serial PCLS for the analysis of one treatment as compared to medium treated PCLS from the same cores. This enables the comparison of densely packed fibrotic areas with fibrotic foci with less affected areas. To ensure the fibrotic status, clinical/demographic information for each patient is provided.
Each treatment was tested with three replicates for each lung region and for each donor.
Preparation and incubation of precision-cut lung slices. Lung lobes were canuled and filled with 37° C. warm 2% low-melting agarose/medium solution. Filled lobes were cooled on ice to polymerise agarose. Tissue cores with a diameter of 8 mm were prepared and cut into approximately 300 μm thick slices using a microtome (Krumdieck tissue slicer, Alabama Research and Development, Muniford, AL, USA or Vibratome OTS-5000, Science Services GmbH, Munich) in Earle's Balanced Salts Solution (EBSS). Tissue slices were incubated in Dulbecco's modified Eagle's medium/nutrient mixture F-12 Ham (DMEM) with L-glutamine and 15 mM HEPES without phenol red. Tissue slices were transferred into petri dishes and washed with DMEM for 2 hours. Medium was changed four times every 30 minutes in order to remove cell debris.
Two PCLS per well were left over night in 500 μL DMEM in 24-well plates for a final washing step. Next day, PCLS were treated with experimental treatments or controls (see Table E5) in 250 μl DMEM/F-12 culture medium for 48 hours under normal cell culture conditions (37° C., 5% CO2). Medium contained 100 units/mL penicillin and 100 μg/mL streptomycin and was not supplemented with fetal calf serum.
After incubation for 48 hours, supernatants were collected, proteinase inhibitor cocktail (0.2%) was added and samples were frozen to −80° C. Additionally, the two PCLS from each well were transferred to a 2 mL safe-lock tube, snap-frozen in liquid nitrogen immediately, and stored at −80° C. Samples from the three replicates for each condition were not pooled.
Extracellular matrix remodeling evaluation. Biomarkers that reflect ECM remodeling were assessed in supernatant by Nordic Bioscience using the following competitive ELISA: PRO-C6 (C-terminal of type VI collagen C5 domain released as type VI collagen is incorporated into the matrix; measured on mesoscale platform [hsPRO-C6]): Reflects type VI collagen formation. Type VI collagen is a beaded filament collagen mainly found in the interface between the interstitial matrix and the basement membrane.
Statistics. […] Pooled data are presented as percentage of the “no treatment” control, calculated for individual regions and donors. Statistical significant differences were evaluated on pooled data by Kruskal-Wallis with Dunn's multiple comparisons test, comparing to the “no treatment” control. […]

hIL-1 IR [4] = target: T2, hIL-1 IR; experiment: Alternate biolayer interferometry assay (AHC biosensors) ranking mAbs 16-32 against mAb5; assay type: binding; conditions: compared to mAb5

Molecule | binding affinity (in words) (hIL-11Rα; beyond the ability of the instrument to determine an accurate off-rate (kd)) | ka (hIL-11Rα; protein G biosensors, association 120 seconds) | kd (hIL-11Rα; protein G biosensors, dissociation 300 to 1200 seconds) | ka (hIL-1 IR [2]) | kd (hIL-1 IR [2]) | qualitative assessment (hIL-1 IR [2]) | potency by more detailed kinetic measurements (in words) (hIL-1 IR [4]) | relative potency at inhibiting IL-11 signaling (in words) [1] | effects on ECM remodeling ([3]; fibrotic human PCLS) | dose dependence of PRO-C6 reduction ([3]; mAb5 0.3, 3.0, 30 μg/mL) | median levels of PRO-C6 compared to the no treatment (media) control ([3]; pooled data all donors and regions, mAb5 0.3, 3.0, 30 μg/mL, nintedanib 1 μM, isotype control 30 μg/mL)
mAb5: anti-IL-11Rα antibody; VH SEQ ID NO: 201, VL SEQ ID NO: 202; human IgG4 (S228P), kappa light chain (antibody, V domains shown, human IgG4 S228P and kappa constant regions; mAb5 VH Chain; mAb5 VL Chain, anti-IL-11Rα antibody; human IgG4 (S228P), kappa light chain) VH: EVQLLESGGGLVQPGGSLRLSCAASGFTFSWYSMTWVRQAPGKGLEWVSSIVPYGDLTQYADSVKGRFTISRDNSKNTLYLQMNSLRAEDTAVYYCAKGPGWGSFDLWGRGTLVTVSS VL: DIQMTQSPSSLSASVGDRVTITCQASQDINNYLNWYQQKPGKAPKLLIYDASNLQTGVPSRFSGSGSGTDFTFTISSLQPEDIATYYCQQHESQSPTFGPGTKVDIK | very high binding affinity | 63700 M⁻¹ s⁻¹ | <1e-07 s⁻¹ | 490000 M⁻¹ s⁻¹ | 2.5e-05 s⁻¹ |  |  | more potent at inhibiting IL-11 signaling than either of TS7 or 8E2 | better effects on ECM remodeling relative to the approved therapy nintedanib | dose-dependent manner; also recorded: dose-related reductions | decreased
mAb23: anti-IL-11Rα antibody; VH SEQ ID NO: 237, VL SEQ ID NO: 238; heavy chain Kabat position 31 variant of mAb5 (antibody, V domains shown, mAb23 VH Chain; mAb23 VL Chain, anti-IL-11Rα antibody; heavy chain Kabat position 31 variant of mAb5) VH: EVQLLESGGGLVQPGGSLRLSCAASGFTFSKYSMTWVRQAPGKGLEWVSSIVPYGDLTQYADSVKGRFTISRDNSKNTLYLQMNSLRAEDTAVYYCAKGPGWGSFDLWGRGTLVTVSS VL: DIQMTQSPSSLSASVGDRVTITCQASQDINNYLNWYQQKPGKAPKLLIYDASNLQTGVPSRFSGSGSGTDFTFTISSLQPEDIATYYCQQHESQSPTFGPGTKVDIK |  |  |  | 720000 M⁻¹ s⁻¹ | off-scale | improved/ | further improved potency |  |  |  | 
mAb21: anti-IL-11Rα antibody; VH SEQ ID NO: 233, VL SEQ ID NO: 234; heavy chain Kabat position 31 variant of mAb5 (antibody, V domains shown, mAb21 VH Chain; mAb21 VL Chain, anti-IL-11Rα antibody; heavy chain Kabat position 31 variant of mAb5) VH: EVQLLESGGGLVQPGGSLRLSCAASGFTFSHYSMTWVRQAPGKGLEWVSSIVPYGDLTQYADSVKGRFTISRDNSKNTLYLQMNSLRAEDTAVYYCAKGPGWGSFDLWGRGTLVTVSS VL: DIQMTQSPSSLSASVGDRVTITCQASQDINNYLNWYQQKPGKAPKLLIYDASNLQTGVPSRFSGSGSGTDFTFTISSLQPEDIATYYCQQHESQSPTFGPGTKVDIK |  |  |  | 750000 M⁻¹ s⁻¹ | off-scale | improved/ | further improved potency |  |  |  | 

Second part, led by results:

binding affinity (in words) (hIL-11Rα; beyond the ability of the instrument to determine an accurate off-rate (kd)) | ka (hIL-11Rα; protein G biosensors, association 120 seconds) | kd (hIL-11Rα; protein G biosensors, dissociation 300 to 1200 seconds) | ka (hIL-1 IR [2]) | kd (hIL-1 IR [2]) | qualitative assessment (hIL-1 IR [2]) | potency by more detailed kinetic measurements (in words) (hIL-1 IR [4]) | Molecule | relative potency at inhibiting IL-11 signaling (in words) [1] | effects on ECM remodeling ([3]; fibrotic human PCLS) | dose dependence of PRO-C6 reduction ([3]; mAb5 0.3, 3.0, 30 μg/mL) | median levels of PRO-C6 compared to the no treatment (media) control ([3]; pooled data all donors and regions, mAb5 0.3, 3.0, 30 μg/mL, nintedanib 1 μM, isotype control 30 μg/mL)
 |  |  | 610000 M⁻¹ s⁻¹ | 1.8e-05 s⁻¹ | improved/ | further improved potency | mAb29: anti-IL-11Rα antibody; VH SEQ ID NO: 249, VL SEQ ID NO: 250; heavy chain Kabat position 31 variant of mAb5 (antibody, V domains shown, mAb29 VH Chain; mAb29 VL Chain, anti-IL-11Rα antibody; heavy chain Kabat position 31 variant of mAb5) VH: EVQLLESGGGLVQPGGSLRLSCAASGFTFSSYSMTWVRQAPGKGLEWVSSIVPYGDLTQYADSVKGRFTISRDNSKNTLYLQMNSLRAEDTAVYYCAKGPGWGSFDLWGRGTLVTVSS VL: DIQMTQSPSSLSASVGDRVTITCQASQDINNYLNWYQQKPGKAPKLLIYDASNLQTGVPSRFSGSGSGTDFTFTISSLQPEDIATYYCQQHESQSPTFGPGTKVDIK |  |  |  | 
 |  |  | 690000 M⁻¹ s⁻¹ | off-scale | improved/ | further improved potency | mAb31: anti-IL-11Rα antibody; VH SEQ ID NO: 253, VL SEQ ID NO: 254; heavy chain Kabat position 31 variant of mAb5 (antibody, V domains shown, mAb31 VH Chain; mAb31 VL Chain, anti-IL-11Rα antibody; heavy chain Kabat position 31 variant of mAb5) VH: EVQLLESGGGLVQPGGSLRLSCAASGFTFSVYSMTWVRQAPGKGLEWVSSIVPYGDLTQYADSVKGRFTISRDNSKNTLYLQMNSLRAEDTAVYYCAKGPGWGSFDLWGRGTLVTVSS VL: DIQMTQSPSSLSASVGDRVTITCQASQDINNYLNWYQQKPGKAPKLLIYDASNLQTGVPSRFSGSGSGTDFTFTISSLQPEDIATYYCQQHESQSPTFGPGTKVDIK |  |  |  | 
